In PMC4932183:

Experiments:
[1] = molecular target: T1, pro-domain of activin A, N-terminal His6-tagged, released from engineered pro-activin A by HRV 3C protease (human); assay: BLI; reverse phase purified His6-tagged pro-domain immobilised at 25 μg/ml on anti-penta-HIS biosensors; mature activin A in solution; 300 s association, 300 s dissociation; Octet RED96, 30 °C
T1 sequence (P08476 whole entry, looked up): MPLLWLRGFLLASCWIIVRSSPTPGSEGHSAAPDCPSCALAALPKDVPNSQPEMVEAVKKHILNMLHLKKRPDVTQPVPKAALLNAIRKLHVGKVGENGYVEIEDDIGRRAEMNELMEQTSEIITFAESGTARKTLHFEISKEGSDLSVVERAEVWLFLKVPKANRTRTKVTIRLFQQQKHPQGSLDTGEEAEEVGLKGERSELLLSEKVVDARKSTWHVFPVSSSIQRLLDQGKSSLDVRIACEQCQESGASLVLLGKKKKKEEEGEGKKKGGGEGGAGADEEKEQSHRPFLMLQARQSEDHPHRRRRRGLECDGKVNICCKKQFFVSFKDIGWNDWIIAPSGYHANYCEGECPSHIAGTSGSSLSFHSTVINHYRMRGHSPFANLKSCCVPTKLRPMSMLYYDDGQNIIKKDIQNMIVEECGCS

[2] = molecular target: T1, pro-domain of activin A, N-terminal His6-tagged, released from engineered pro-activin A by HRV 3C protease (human); assay: BLI; His6-tagged pro-activin A complex immobilised through the pro-domain on anti-penta-HIS biosensors, dipped into buffer containing 100 nM FST-288 for 600 s; dissociation of the mature domain; 30 °C
[3] = molecular target: T1, pro-domain of activin A, N-terminal His6-tagged, released from engineered pro-activin A by HRV 3C protease (human); assay: BLI; pro-activin A complex immobilised at 50 μg/ml on anti-penta-HIS biosensors, mature domain removed with 16 μM FST-288, then mature activin A in solution; 600 s association, 600 s dissociation; 30 °C
[4] = molecular target: T1, pro-domain of activin A, N-terminal His6-tagged, released from engineered pro-activin A by HRV 3C protease (human); assay: BLI; His6-tagged pro-activin A complex immobilised through the pro-domain on anti-penta-HIS biosensors, dipped into blank buffer for 600 s; dissociation of the mature domain; 30 °C

Kd [1]: 5 nM
dissociation rate with 100 nM FST-288 [2]: 0.00445 s⁻¹
Kd [3]: 2.3 nM
koff [4]: 0.00299 s⁻¹
B1: mature activin A (disulfide-linked dimer of the mature domain of inhibin βA) (ligand)
chain: GLECDGKVNICCKKQFFVSFKDIGWNDWIIAPSGYHANYCEGECPSHIAGTSGSSLSFHSTVINHYRMRGHSPFANLKSCCVPTKLRPMSMLYYDDGQNIIKKDIQNMIVEECGCS
